Measurements as given in the Human Domainome abundance scans (Beltran et al. 2025).
± gives the uncertainty stated by the source.

B1: Lysine-specific demethylase 5C, residues 319 to 373; numbered along this chain, P41229 (parent)
chain: AQFIESYVCRMCSRGDEDDKLLLCDGCDDNYHIFCLLPPLPEIPKGVWRCPKCVM
B2: Tripartite motif-containing protein 49C, residues 87 to 133; numbered along this chain, P0CI26 (parent)
chain: SSEEQMCGTHRETKKIFCEVDRSLLCLLCSSSQEHRYHRHRPIEWAA

Variants of: B1
Assay: abundance fitness (aPCA) (normalised: wild type 0, dead -1); higher = more abundant; growth selection in yeast, the domain comes from the species named
Settings: Homo sapiens

Variant	abundance fitness
P51A	-0.258 ± 0.17
P51H	-0.015 ± 0.17
P51S	0.138 ± 0.11
P51F	-0.048 ± 0.2
P51G	-0.494 ± 0.18
P51L	-0.671 ± 0.14
P51D	0.009 ± 0.19
P51T	-0.467 ± 0.17
P51V	-0.153 ± 0.13
P51Q	-0.136 ± 0.16
P51Y	-0.312 ± 0.26
P51C	-0.427 ± 0.19
P51I	-0.175 ± 0.19
P51K	0.131 ± 0.19
P51M	-0.092 ± 0.16
M55I	-0.346 ± 0.44
M55S	0.295 ± 0.24
M55V	0.015 ± 0.17
M55G	-0.61 ± 0.24
M55T	-0.183 ± 0.31
M55L	-0.154 ± 0.18
M55A	-0.035 ± 0.41
M55P	0.446 ± 0.44
W48D	-0.686 ± 0.46

Variant	abundance fitness
W48Y	-0.568 ± 0.34
W48G	-0.676 ± 0.14
W48K	-0.635 ± 0.18
W48T	-1.05 ± 0.25
W48A	-0.59 ± 0.11
W48N	-0.853 ± 0.41
W48V	-0.78 ± 0.14
W48I	-0.14 ± 0.27
W48C	-1.15 ± 0.44
W48R	-0.611 ± 0.13
W48M	-0.671 ± 0.17
W48F	-0.253 ± 0.22
W48S	-0.839 ± 0.15
W48L	-0.849 ± 0.15
W48H	-0.811 ± 0.37
W48Q	-0.566 ± 0.17
R49A	-0.262 ± 0.16
R49P	-0.949 ± 0.31
R49H	-0.134 ± 0.19
R49L	-0.164 ± 0.12
R49V	-0.25 ± 0.15
R49F	-0.358 ± 0.14
R49C	-0.468 ± 0.22
R49I	-0.176 ± 0.2

Variant	abundance fitness
R49E	-0.178 ± 0.17
R49D	-0.865 ± 0.34
R49S	-0.324 ± 0.13
R49G	-0.4 ± 0.2
R49Q	0.106 ± 0.19
R49N	0.268 ± 0.15
R49W	-0.085 ± 0.31
R49T	-0.055 ± 0.16
R49K	0.205 ± 0.17
R49M	-0.092 ± 0.19
C53G	-0.865 ± 0.15
C53Y	-1.01 ± 0.3
C53W	-1.08 ± 0.27
C53D	-0.889 ± 0.28
C53K	-0.921 ± 0.48
C53P	-0.744 ± 0.22
C53T	-0.939 ± 0.29
C53E	-0.952 ± 0.4
C53M	-0.713 ± 0.34
C53I	-0.941 ± 0.39
C53S	-0.835 ± 0.16
C53R	-1 ± 0.17
C53L	-0.909 ± 0.2
C50N	-0.927 ± 0.48

Variant	abundance fitness
C50M	-1.17 ± 0.44
C50I	-0.757 ± 0.35
C50D	-0.841 ± 0.25
C50Y	-0.761 ± 0.28
C50E	-0.992 ± 0.24
C50P	-0.987 ± 0.46
C50F	-0.421 ± 0.23
C50V	-1.05 ± 0.19
C50G	-1.01 ± 0.15
C50L	-0.702 ± 0.14
C50R	-0.926 ± 0.14
C50T	-1.05 ± 0.39
C50W	-0.823 ± 0.22
C50Q	-0.71 ± 0.22
C50K	-1 ± 0.27
C50A	-0.887 ± 0.19
V47Q	0.208 ± 0.2
V47Y	-0.058 ± 0.19
V47L	-0.359 ± 0.16
V47N	-0.052 ± 0.19
V47A	-0.241 ± 0.13
V47W	-0.473 ± 0.18
V47E	-0.142 ± 0.14
V47T	-0.101 ± 0.15

Variant	abundance fitness
V47K	0.154 ± 0.16
V47F	0.082 ± 0.23
V47S	0.081 ± 0.12
V47R	0.044 ± 0.087
V47H	-0.064 ± 0.22
V47G	-0.061 ± 0.091
V47M	-0.157 ± 0.18
V47C	-0.213 ± 0.2
V47P	-0.247 ± 0.24
V47I	-0.132 ± 0.18
V47D	-0.064 ± 0.16
K52Q	-0.065 ± 0.19
K52W	-0.364 ± 0.16
K52L	-0.282 ± 0.12
K52F	-0.14 ± 0.23
K52I	0.006 ± 0.21
K52D	0.095 ± 0.17
K52Y	-0.286 ± 0.24
K52M	-0.611 ± 0.27
K52P	0.049 ± 0.17
K52A	0.02 ± 0.12
K52V	-0.123 ± 0.12
K52N	-0.032 ± 0.21
K52H	-0.184 ± 0.2

Variant	abundance fitness
K52S	-0.183 ± 0.12
K52T	0.018 ± 0.13
K52G	-0.024 ± 0.085
K52R	0.007 ± 0.096
K52E	-0.23 ± 0.15
V54H	0.002 ± 0.29
V54C	-0.097 ± 0.25
V54N	-0.262 ± 0.28
V54R	-0.131 ± 0.13
V54F	-0.479 ± 0.24
V54E	-0.367 ± 0.22
V54L	-0.196 ± 0.15
V54I	0.017 ± 0.12
V54A	-0.151 ± 0.11
V54W	-0.836 ± 0.36
V54Y	-0.064 ± 0.26
V54M	-0.145 ± 0.19
V54K	-0.024 ± 0.21
V54Q	-0.54 ± 0.26
V54S	-0.261 ± 0.14
V54G	-0.27 ± 0.13

Variants of: B2
Assay: as above
Settings: Homo sapiens

Variant	abundance fitness
S2I	-0.017 ± 0.14
S2E	-0.222 ± 0.14
S2D	-0.354 ± 0.21
S2R	-0.268 ± 0.096
S2L	-0.204 ± 0.12
S2V	-0.29 ± 0.11
S2A	-0.21 ± 0.1
S2Y	-0.647 ± 0.3
S2K	-0.114 ± 0.14
S2N	-0.538 ± 0.17
S2F	0.205 ± 0.14
S2P	-0.042 ± 0.22
H10M	-1.06 ± 0.18
H10Q	-0.757 ± 0.19
H10T	-0.772 ± 0.16
H10I	-1 ± 0.26
H10D	-0.303 ± 0.15
H10V	-0.788 ± 0.1
H10S	-0.613 ± 0.099
H10N	-0.836 ± 0.26
H10L	-0.256 ± 0.1
H10K	-0.714 ± 0.22
H10G	-0.671 ± 0.084
H10Y	-0.855 ± 0.16
H10P	-0.549 ± 0.13
H10C	-0.523 ± 0.12
